Experimental data: article PMC11440976, “Optimization and Evaluation of Al^18F Labeling Using a NOTA—or RESCA1-Conjugated AE105 Peptide Antagonist of uPAR” (Frontiers in Nuclear Medicine, 2021)
Values belong to the molecule of their own block, whether it stands above or below them. Where a SMILES comes first, the peptide text is derived from it. Where no end group is shown, it is not given here. [ ]: non-standard residue; d: D form. Cha = N[C@@H](CC1CCCCC1)C(=O)O

Key:
[1] = target: T1, uPAR^1−283 (Homo sapiens, UniProt Q03405); assay: SPR binding kinetics of peptides to immobilized uPAR (Biacore T200, single cycle); settings: NB = no binding; for kon / koff: uPAR immobilized on CM5 chip, peptide in solution, global fit, ± standard error of fit; for kon: five serial 2-fold dilutions, 10 mM HEPES, 150 mM NaCl, 3 mM EDTA, 0.05% P-20, pH 7.4, 20°C, read-out: kon (association rate constant); for koff: read-out: koff (dissociation rate constant)
T1 construct: 10 μg/mL uPAR^1−283 in 10 mM sodium acetate pH 5.0 was covalently immobilized on a CM5 sensor chip; made in house
Method: Binding kinetics of the peptides-uPAR interactions were determined with surface plasmon resonance (SPR) on a Biacore T200™ system (Cytiva), as outlined ([10]). In brief; 10 μg/mL uPAR^1−283 in 10 mM sodium acetate pH 5.0 was covalently immobilized on a CM5 sensor chip via amine coupling yielding a surface density of 905-1,333 RU (~26–39 fmol/mm^2) ([11]). Subsequently, we measured the binding kinetics of the various peptides to immobilized uPAR with single cycle protocols in which the peptides were injected as five serial 2-fold dilutions for 200 s with a short dissociation phase in between (100 s). The last analyte injection was followed by a 1,000 s long dissociation phase. In the end of each cycle, two consecutive injections of 0.1 M acetic acid in 0.5 M NaCl regenerated the sensor chip. All experiments were run with a flowrate of 50 μl/min in 10 mM HEPES, 150 mM NaCl, 3 mM EDTA, and 0.05% (v/v) surfactant P-20 at pH 7.4 at 20°C. The kinetic rate constants (kon and koff) as well as the KD (koff/kon) were determined by non-linear regression fitting of the curves to a simple bimolecular interaction model. We applied the BiacoreT200 Evaluation^TM 3.0 software for the global fitting. Additional binding kinetic curves is provided in the Supplementary Material.

[2] = target: uPAR·uPA interaction (Homo sapiens, UniProt Q03405); assay: SPR competition of the uPAR·uPA interaction (uPAR in solution, immobilized pro-uPA^S356A); assay type: binding; settings: 2 nM uPAR incubated with 3-fold dilution series of peptide (0.076 nM to 1.5 μM), pH 7.4, 20°C, four-parameter dose-response fit, n = 3, ± standard error
Method: The IC50-values of RESCA-AE105, NOTA-AE105, AE105 (Asp-Cha-Phe-(D)Ser-(D)Arg-Tyr-Leu-Trp-Ser) and AE105-mut (Asp-Cha-Glu-(D)Ser-(D)Arg-Tyr-Leu-Glu-Ser) on the uPAR·uPA interaction were determined with SPR on a Biacore 3000™ instrument or a Biacore T200™ system (Cytiva). The set-up is overall as described previously ([12]). In brief, we obtained a high surface density of pro-uPA^S356A by immobilizing >5,000 RU (~ 0.1 pmol pro-uPA/mm^2) on a CM5 sensor chip. […] For the analysis, we incubated 2 nM uPAR with a 3-fold dilution series of the peptides (ranging from 0.076 nM to 1.5 μM) and the νobs was measured for 300 s at 20°C with a flow rate of 50 μL/min. The running buffer contained 10 mM HEPES, 150 mM NaCl, 3 mM EDTA and 0.05 % (v/v) surfactant P20, pH 7.4. The sensor chip was regenerated with two consecutive injections of 0.1 M acetic acid, 0.5 M NaCl in the end of each cycle. In parallel, we measured a standard curve (2-fold dilution of uPAR covering 0.06–2 nM). This standard curve included one repeated concentration point at the end to validate the biological integrity of the sensor chip.

[3] = target: T2, uPAR^1−283 (UniProt Q03405-1 23-305); assay: SPR; competition in solution: 2 nM uPAR incubated with 3-fold dilution series of the peptides (0.076 nM to 1.5 μM), free uPAR read by its association rate on pro-uPA^S356A immobilised at high density (>5,000 RU) on a CM5 chip; 10 mM HEPES, 150 mM NaCl, 3 mM EDTA, 0.05% P20, pH 7.4, 20°C; four-parameter dose-response fit, n = 3; settings: both partners purified
[4] = target: T2, uPAR^1−283; assay: SPR; uPAR^1−283 immobilised on a CM5 chip by amine coupling (905-1,333 RU); peptides injected in single cycle protocols, five serial 2-fold dilutions; 10 mM HEPES, 150 mM NaCl, 3 mM EDTA, 0.05% P-20, pH 7.4, 20°C; Biacore T200; simple bimolecular model, global fit; settings: both partners purified

T1 sequence (Q03405 23-305): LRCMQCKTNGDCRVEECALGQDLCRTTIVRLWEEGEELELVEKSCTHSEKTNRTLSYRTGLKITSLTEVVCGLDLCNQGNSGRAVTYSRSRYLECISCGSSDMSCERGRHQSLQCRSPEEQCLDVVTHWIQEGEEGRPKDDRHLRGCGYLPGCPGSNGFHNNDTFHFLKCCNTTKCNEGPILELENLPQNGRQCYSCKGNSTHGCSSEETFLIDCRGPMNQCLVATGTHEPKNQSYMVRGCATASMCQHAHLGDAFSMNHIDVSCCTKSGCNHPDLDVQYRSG
T2 sequence (Q03405 23-305): as above
uPAR·uPA interaction, sequence (Q03405 23-305 limits assumed): as the sequence (Q03405 23-305) above

Molecule: CC(C)C[C@H](NC(=O)[C@H](Cc1ccc(O)cc1)NC(=O)[C@@H](CCCNC(=N)N)NC(=O)[C@@H](CO)NC(=O)[C@H](Cc1ccccc1)NC(=O)[C@H](CC1CCCCC1)NC(=O)[C@@H](N)CC(=O)O)C(=O)N[C@@H](Cc1c[nH]c2ccccc12)C(=O)N[C@@H](CO)C(=O)O [AE105]
- kon [1]: 1.01e+06 ± 3000 M⁻¹ s⁻¹
- koff ([1]; pH 7.4, 20°C): 0.00413 ± 1e-05 s⁻¹

B2: AE105 (peptide)
chain: DXFSRYLWS
modifications: Cha (cyclohexylalanine) at position 2; (D)Ser at position 4; (D)Arg at position 5
- IC50 [3]: 8.86 nM
- Kd [4]: 4.1 nM

B3: AE105-mut (peptide)
chain: D[Cha]E[dS][dR]YLES
- IC50 [3]: > 1000 nM

Further lines, results first:

- kon [1]: 292000 ± 1000 M⁻¹ s⁻¹
- koff ([1]; pH 7.4, 20°C): 0.014 ± 2e-05 s⁻¹
Molecule: CC(C)C[C@H](NC(=O)[C@H](Cc1ccc(O)cc1)NC(=O)[C@@H](CCCNC(=N)N)NC(=O)[C@@H](CO)NC(=O)[C@H](Cc1ccccc1)NC(=O)[C@H](CC1CCCCC1)NC(=O)[C@H](CC(=O)O)NC(=O)c1ccc(CN(CC(=O)O)[C@@H]2CCCC[C@H]2N(CC(=O)O)CC(=O)O)cc1)C(=O)N[C@@H](Cc1c[nH]c2ccccc12)C(=O)N[C@@H](CO)C(=O)O [RESCA1-AE105]

- Kd ([1]; immobilized uPAR, pH 7.4, 20°C, simple bimolecular interaction model, read-out: KD (equilibrium dissociation constant, koff/kon)): > 200 nM
- IC50 [2]: > 1000 nM
Molecule: CC(C)C[C@H](NC(=O)[C@H](Cc1ccc(O)cc1)NC(=O)[C@@H](CCCNC(=N)N)NC(=O)[C@@H](CO)NC(=O)[C@H](CCC(=O)O)NC(=O)[C@H](CC1CCCCC1)NC(=O)[C@@H](N)CC(=O)O)C(=O)N[C@@H](CCC(=O)O)C(=O)N[C@@H](CO)C(=O)O [AE105mut] (H-D[Cha]E[dS][dR]YLES-OH)

- IC50 [3]: 76.7 nM
- Kd [4]: 48 nM
B1: RESCA1-AE105 (peptide)
chain: DXFSRYLWS
modifications: RESCA1 chelator conjugated at the N-terminal; Cha (cyclohexylalanine) at position 2; (D)Ser at position 4; (D)Arg at position 5

- koff [4]: 0.0125 s⁻¹
- kon [4]: 224000 M⁻¹ s⁻¹
B4: NOTA-AE105 (peptide)
chain: DXFSRYLWS
modifications: NOTA chelator conjugated at the N-terminal; Cha (cyclohexylalanine) at position 2; (D)Ser at position 4; (D)Arg at position 5
